{"source": "ChEMBL document CHEMBL4043266", "about": "“Pentacyclic triterpenes as α-glucosidase and α-amylase inhibitors: Structure-activity relationships and the synergism with acarbose” (Bioorg Med Chem Lett, 2017)", "proteins": {"B1": {"name": "Pancreatic alpha-amylase (Sus scrofa), P00690 (protein)", "chain": "MKLFLLLSAFGFCWAQYAPQTQSGRTSIVHLFEWRWVDIALECERYLGPKGFGGVQVSPPNENIVVTNPSRPWWERYQPVSYKLCTRSGNENEFRDMVTRCNNVGVRIYVDAVINHMCGSGAAAGTGTTCGSYCNPGNREFPAVPYSAWDFNDGKCKTASGGIESYNDPYQVRDCQLVGLLDLALEKDYVRSMIADYLNKLIDIGVAGFRIDASKHMWPGDIKAVLDKLHNLNTNWFPAGSRPFIFQEVIDLGGEAIQSSEYFGNGRVTEFKYGAKLGTVVRKWSGEKMSYLKNWGEGWGFMPSDRALVFVDNHDNQRGHGAGGASILTFWDARLYKVAVGFMLAHPYGFTRVMSSYRWARNFVNGQDVNDWIGPPNNNGVIKEVTINADTTCGNDWVCEHRWRQIRNMVWFRNVVDGQPFANWWANGSNQVAFGRGNRGFIVFNNDDWQLSSTLQTGLPGGTYCDVISGDKVGNSCTGIKVYVSSDGTAQFSISNSAEDPFIAIHAESKL"}}, "settings_in_all_cases": "Sus scrofa", "key": {"[1]": {"compound": "C[C@H]1[C@H](C)CC[C@]2(C(=O)O)CC[C@]3(C)C(=CC[C@@H]4[C@@]5(C)C[C@@H](O)[C@H](O)C(C)(C)[C@@H]5CC[C@]43C)[C@H]12", "assay": "Inhibition of porcine pancreatic alpha-amylase assessed as Vmax for substrate using starch as substrate at 31.2 uM by Michaelis-Menten plot analysis (reference value: 28.6 +/- 1.8 microg/ml/min)"}, "[2]": {"compound": "C[C@H]1[C@H](C)CC[C@]2(C(=O)O)CC[C@]3(C)C(=CC[C@@H]4[C@@]5(C)C[C@@H](O)[C@H](O)C(C)(C)[C@@H]5CC[C@]43C)[C@H]12", "assay": "Inhibition of porcine pancreatic alpha-amylase assessed as Km for substrate using starch as substrate at 15.6 uM by Michaelis-Menten plot analysis (reference value: 2.48 +/- 0.24 mg/ml)"}, "[3]": {"compound": "C[C@H]1[C@H](C)CC[C@]2(C(=O)O)CC[C@]3(C)C(=CC[C@@H]4[C@@]5(C)C[C@@H](O)[C@H](O)C(C)(C)[C@@H]5CC[C@]43C)[C@H]12", "assay": "Inhibition of porcine pancreatic alpha-amylase assessed as Vmax for substrate using starch as substrate at 15.6 uM by Michaelis-Menten plot analysis (reference value: 28.6 +/- 1.8 microg/ml/min)"}, "[4]": {"compound": "C[C@H]1[C@H](C)CC[C@]2(C(=O)O)CC[C@]3(C)C(=CC[C@@H]4[C@@]5(C)C[C@@H](O)[C@H](O)C(C)(C)[C@@H]5CC[C@]43C)[C@H]12", "assay": "Inhibition of porcine pancreatic alpha-amylase assessed as Km for substrate using starch as substrate at 31.2 uM by Michaelis-Menten plot analysis (reference value: 2.48 +/- 0.24 mg/ml)"}}}
{"protein": "B1", "values": [{"measurement": "Vmax", "setting": "[1]", "result": 14.3, "unit": "µg/mL/min"}, {"measurement": "Km", "setting": "[2]", "result": 2.28, "unit": "mg/mL"}, {"measurement": "Vmax", "setting": "[3]", "result": 21, "unit": "µg/mL/min"}, {"measurement": "Km", "setting": "[4]", "result": 2.69, "unit": "mg/mL"}]}
